Measurements taken from patent publication US20140378659A1.

Target: human oxidized LDL (copper-oxidized low-density lipoprotein from plasma of a healthy individual) (human) (UniProt P04114)
Test: cell-based or functional assay

uptake of DiI-labeled oxidized LDL into LOX-1-expressing cells (fluorescence intensity): > 90%
B1: Human-derived Del-1 (developmental endothelial locus-1), recombinant protein having a His tag added to the C-terminus (protein, not shown: small tags and cut ends)
chain: DICDPNPCENGGICLPGLADGSFSCECPDGFTDPNCSSVVEVASDEEEPTSAGPCTPNPCHNGGTCEISEAYRGDTFIGYVCKCPRGFNGIHCQHNINECEVEPCKNGGICTDLVANYSCECPGEFMGRNCQYKCSGPLGIEGGIISNQQITASSTHRALFGLQKWYPYYARLNKKGLINAWTAAENDRWPWIQINLQRKMRVTGVITQGAKRIGSPEYIKSYKIAYSNDGKTWAMYKVKGTNEDMVFRGNIDNNTPYANSFTPPIKAQYVRLYPQVCRRHCTLRMELLGCELSGCSEPLGMKSGHIQDYQITASSIFRTLNMDMFTWEPRKARLDKQGKVNAWTSGHNDQSQWLQVDLLVPTKVTGIITQGAKDFGHVQFVGSYKLAYSNDGEHWTVYQDEKQRKDKVFQGNFDNDTHRKNVIDPPIYARHIRILPWSWYGRITLRSELLGCTEEE
